Reference: US20090175881A1 (SCHERING, published 2009)
Residue numbers refer to the chain shown, from its start. Numbers in names are those of the source.

T1: rhIL-17A (human, UniProt Q16552 24-155)
T1 sequence: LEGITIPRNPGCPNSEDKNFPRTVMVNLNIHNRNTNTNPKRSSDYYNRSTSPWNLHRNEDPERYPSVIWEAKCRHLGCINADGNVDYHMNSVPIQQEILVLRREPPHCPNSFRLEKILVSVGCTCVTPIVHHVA

T2: cynomolgus monkey IL-17A (cynomolgus monkey, UniProt A0A2K5TTB0 24-155)
T2 sequence: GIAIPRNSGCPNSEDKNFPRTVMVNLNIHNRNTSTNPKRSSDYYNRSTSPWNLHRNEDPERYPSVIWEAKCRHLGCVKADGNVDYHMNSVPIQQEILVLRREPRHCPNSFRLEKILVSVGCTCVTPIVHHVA

T3: FLAG-huIL-17A (human, UniProt Q16552 24-155)
T3 construct: also called FLAG-huL-17A; FLAG-IL-17A
T3 sequence: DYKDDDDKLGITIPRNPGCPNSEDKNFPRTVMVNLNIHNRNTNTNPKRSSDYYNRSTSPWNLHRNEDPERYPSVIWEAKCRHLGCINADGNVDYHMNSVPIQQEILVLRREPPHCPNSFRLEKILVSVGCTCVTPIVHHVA

T4: R&D Systems human IL-17A (human, UniProt Q16552 20-155)
T4 construct: Bought from R&D Systems, made in E. coli; also called R&D IL-17A; E. coli-derived human IL-17 (IL-17A)
T4 sequence: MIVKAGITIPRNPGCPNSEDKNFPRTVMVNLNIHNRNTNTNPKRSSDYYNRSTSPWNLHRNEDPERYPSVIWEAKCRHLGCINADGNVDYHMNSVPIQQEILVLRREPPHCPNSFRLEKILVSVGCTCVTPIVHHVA

B1: rat 4C3 (antibody, V domains shown)
VH: QVELRESGPGLVQPSQTLSLTCTVSGFSLPSHSVSWIRQPPGKGLEWMGIIWNNGGTDYNSAFKSRLTISRDTSKSQVFLKMNSLQTEDTAMYFCARNMYITDYYYENYFMDAWGQGASVTVSS
VL: DIVMTQSPSSLAVSVGETVTLNCKSSQSLLFSENQKNYLAWYQHKSGQSPKLLVYWTSTRQSGVPDRFMGSGSGTDFTLTISSVQAEDLAIYYCQQSYYTPYTFGAGTKLELKR
B2: chimeric 16C10 (antibody, human IgG1, kappa, V domains shown)
VH: B1 VH
VL: B1 VL with V15I
notes: also called chimeric 16C10C
B3: rat 12E6 (antibody, V domains shown)
VH: EVQLEESGGGLVQPGRSLKLSCAASGFTFRDYYMVWVRQAPKKGLEWVASISYEGSSIYYGESVKGRFTISRDNAKSTLYLQMNSLRSEDTATYYCARHGFNPFDYWGRGVMVTVSS
VL: DIQMTQSPSSLSASLGDRVTITCRTSQDIGNYLSWFQQKPGKSPRLMIYGASNLEDGVPSRFSGSRSGSDYSLTISSLESEDTAIYYCLQYDKYPNTFGAGTKLELKR
B4: humanized 16C10 wt (antibody, human IgG1, kappa, V domains shown)
VH: QVQLQESGPGLVKPSETLSLTCTVSGFSLPSHSVSWIRQPPGKGLEWIGIIWNNGGTDYNSAFKSRVTISVDTSKNQFSLKLSSVTAADTAVYYCARNMYITDYYYENYFMDAWGQGTLVTVSS
VL: DIVMTQSPLSLPVTPGEPASISCKSSQSLLFSENQKNYLAWYLQKPGQSPQLLIYWTSTRQSGVPDRFSGSGSGTDFTLKISRVEAEDVGVYYCQQSYYTPYTFGQGTKVEIKR
notes: Humanized antibody with the parental rat CDRs; Human IgG1/kappa; also called hu 16C10 wt; hu16C10 (wt)
B5: hu 16C10 Fab (Fab, V domains shown)
VH: B4 VH with N54Q, M99A
VL: B4 VL
notes: also called Fab fragment of hu 16C10
B6: hu 16C10 VH M96A (antibody, human IgG1, V domains shown)
VH: B4 VH with M99A
VL: B4 VL
notes: Variant of hu 16C10 wt; Human IgG1/kappa; also called hu16C10 (M96A)
B7: hu 16C10 VH N54Q/M96A/M100hF (antibody, human IgG1, kappa, V domains shown)
VH: B4 VH with N54Q, M99A, M111F
VL: B4 VL
notes: Human IgG1/kappa; also called hu 16C10 VH 54Q/M96A/M100hF; hu16C10 (N54Q/M96A/M100hF)
B8: hu 16C10 VH M96F (antibody, human IgG1, V domains shown)
VH: B4 VH with M99F
VL: B4 VL
notes: Variant of hu 16C10 wt; Human IgG1/kappa
B9: hu 16C10 VH N54A (antibody, human IgG1, V domains shown)
VH: B4 VH with N54A
VL: B4 VL
notes: Variant of hu 16C10 wt; Human IgG1/kappa; also called hu16C10 (N54A)
B10: hu 16C10 VH M96K (antibody, human IgG1, V domains shown)
VH: B4 VH with M99K
VL: B4 VL
notes: Variant of hu 16C10 wt; Human IgG1/kappa; also called hu16C10 (M96K)
B11: hu 16C10 VH M100hL (antibody, human IgG1, V domains shown)
VH: B4 VH with M111L
VL: B4 VL
notes: as for B8
B12: hu 16C10 VH N60Q (antibody, human IgG1, V domains shown)
VH: B4 VH with N60Q
VL: B4 VL
notes: as for B8
B13: hu 16C10 VH M100hF (antibody, human IgG1, V domains shown)
VH: B4 VH with M111F
VL: B4 VL
notes: Variant of hu 16C10 wt; Human IgG1/kappa; also called hu16C10 (M100hF)
B14: hu 16C10 VH N54Q (antibody, human IgG1, V domains shown)
VH: B4 VH with N54Q
VL: B4 VL
notes: Variant of hu 16C10 wt; Human IgG1/kappa; also called hu16C10 (N54Q)
B15: hu 16C10 VH M96L (antibody, human IgG1, V domains shown)
VH: B4 VH with M99L
VL: B4 VL
notes: as for B8
B16: hu 16C10 VH N60A (antibody, human IgG1, V domains shown)
VH: B4 VH with N60A
VL: B4 VL
notes: as for B8
B17: rat 30C10 (antibody, V domains shown)
VH: EVQLVESGGGLVQPGRSQKLSCVVSGFTFNNYWMTWIRQAPGKGLEWVASVSNTGSSTYYPASVKGRFTISRDNAKSTLYLQMNSLRSEDTATYYCTREGAYYLDYWGQGVMVTVSS
VL: DIVMTQSPSSLAVSPGETVTINCKSSQSLFWSESHMNYLAWYQQKPGQSPKLLIYYASTRQSGVPDRFIGSGSGTDFTLTISGVQAEDLAVYYCHHHYDSHTFGAGTKLELKR
notes: Parental rat monoclonal antibody (hybridoma PTA-7739); also called 30C10C

What was measured:
[1] = target: T1, rhIL-17A; assay: cell-based or functional assay
[2] = target: T2, cynomolgus monkey IL-17A; assay: cell-based or functional assay
[3] = target: T1, rhIL-17A; assay: cell-based or functional assay; remark: listed apart in the source
[4] = target: T1, rhIL-17A; assay: indirect ELISA, rhIL-17A coated on plate
Protocol: Binding of anti-human-IL-17A monoclonal antibodies to rhIL-17A is assessed using an indirect enzyme-linked immunosorbent assay (ELISA). Briefly, a fixed concentration of rhIL-17A is bound directly to the wells of a microtiter plate. The monoclonal anti-IL-17A to be assayed is then is added to the rhIL-17A coated plate, where the antibody is captured and quantitated.
A 96-well U-bottom MaxiSorp plate is coated with 50 μl/well of rhIL-17A (0.5 μg/ml) in carbonate coating buffer (the “assay plate”). Carbonate coating buffer is 2.9 g/L NaHFCO₃, 1.6 g/L Na₂CO₃, pH 9.4. Plates are incubated covered at 4° C. overnight. Monoclonal antibodies to be screened are serially diluted in duplicate across the rows of a V-bottom plate such that the final volume is 60 μl/well (the “serial dilution plate”). The assay plate is washed three times with PBS-Tween in a plate washer (SkanWasher, Molecular Devices, Sunnyvale, Calif., USA) and blotted dry. PBS-Tween is obtained by adding 0.5 ml/L Tween 20 to 1×PBS. Fifty μl from each well of the serial dilution plate is transferred to the assay plate and incubated at 25° C. for one hour. Secondary antibodies are diluted 1/2000 in diluent (PBS-BSA-Tween, which is PBS-Tween with 1 g/L BSA). The secondary antibody for rat monoclonal antibodies is goat anti-rat IgG (H+L)—HRP (Jackson ImmunoResearch Laboratories, Inc., West Grove, Pa., USA). The secondary antibody for chimeric and humanized monoclonal antibodies is F(ab′)₂ goat anti-human IgG Fcγ—HRP (Jackson ImmunoResearch Laboratories, Inc.). The assay plate is washed as before. Diluted secondary antibodies (100 μl/well) are added to the appropriate wells in the assay plate, and the plate is incubated at 25° C. for 45 minutes. The assay plate is washed as before.

[5] = target: T3, FLAG-huIL-17A; assay: ECL (Origen), antibody titrated against biotinylated antigen; area under the curve
Description: (§1) Origen electrochemiluminescence technology, developed by IGEN, Inc. (Gaithersburg, Md., USA), and was employed to measure the binding of rat anti-human IL-17A antibodies (and one chimeric antibody) to FLAG-huL-17A. […] Electrochemiluminescence technology uses a stable ruthenium metal chelate (Ori-TAG) which, in the presence of tripropylamine (TPA), generates electrochemiluminescence upon voltage application. Paramagnetic beads, microns in diameter, act as the solid phase and facilitate rapid assay kinetics. The bead/complex is channeled through a flow cell and captured at an electrode by magnetic application. Voltage is applied and resulting electrochemiluminescence is measured.
(§2) ECL assays were performed as follows. Three-fold serial dilutions of anti-human IL-17A mAbs in 50 μl of the assay buffer were made in a 96-well microtiter plate to give 1-3 μg/ml final concentration in the first well. […] Finally 50 μl of Origen Streptavidin-Dynabeads at 0.1 mg/ml was added to each well. […] GraphPad Prism software (GraphPad Software, San Diego, Calif., USA) was used to plot the data and calculate area under the curve, which is a rough measure of binding.

[6] = target: T1, rhIL-17A; assay: cell-based or functional assay; remark: listed apart in the source
[7] = target: T1, rhIL-17A; assay: KinExA, solution equilibrium
Protocol: (§3) The equilibrium dissociation constants (Kd) for anti human IL-17A antibodies were determined using the KinExA 3000 instrument (Sapidyne Instruments Inc., Boise, Id., USA). KinExA uses the principle of the Kinetic Exclusion Assay method based on measuring the concentration of uncomplexed antibody in a mixture of antibody, antigen and antibody-antigen complex. […] The concentration of free antibody is measured by exposing the mixture to a solid-phase immobilized antigen for a very brief period of time. l practice, this is accomplished by flowing the solution phase antigen-antibody mixture past antigen-coated particles trapped in a flow cell. Data generated by the instrument are analyzed using custom software.
(§4) IL-17A was derived from either human (“hu”), cynomolgus monkey (“cyno”), or mouse (“mu”). IL-17A from the same species was used in both the immobilized and solution phases for each KinExA determination. Poly(methyl-methacrylate) (PMMA) particles (98 micron) were coated with human, cyno or mouse IL-17A according to Sapidyne “Protocol for coating PMMA particles with biotinylated ligands having short or nonexistent linker arms.” All experimental procedures were done according to the KinExA 3000 manual. All runs were done in duplicate.
(§5) Two-fold serial dilutions of the antigen were prepared and mixed with the antibody at constant concentration. The mixture was incubated for 2 hours at 25° C. to equilibrate.

[8] = target: T1, rhIL-17A; assay: cell-based or functional assay; remark: listed apart in the source
[9] = target: T4, R&D Systems human IL-17A; assay: sandwich ELISA, IL-17A captured on rat 12E6, antibody titrated
Protocol: (§6) Binding of anti-human-IL-17A monoclonal antibodies to rhIL-17A is assessed using an ELISA as follows. Briefly, a capture antibody is bound to the wells of a microtiter plate, after which a fixed concentration of rhIL-17A is added. The monoclonal anti-IL-17A to be assayed is then titrated versus the bound rhIL-17A on the plate to determine the concentration of antibody needed to achieve half-maximal binding. A more detailed protocol follows.
(§7) A 96-well microtiter plate is coated with 100 μl/well of capture antibody (rat anti-hIL-17A 12E6, 0.5 μg/ml) in carbonate coating buffer pH 9.5 (the “assay plate”). Plates are incubated covered at 4° C. for 24 to 48 hours. The assay plate is washed three times in a plate washer (SkanWasher, Molecular Devices, Sunnyvale, Calif., USA) and blotted dry. The plate is then blocked with 200 μl/well of ELISA assay buffer (20 mM Tris-HCl, 0.15 M NaCl, pH7.4, 0.5% BSA, 0.05% Tween-20, SM EDTA) for one hour at 25° C. on an orbital shaker. The plate is washed, and 100 μl/well of either adenovirus-derived rhIL-17A or E. coli-derived human IL-17 (IL-17A) (R&D Systems, Minneapolis, Minn., USA) (0.1 g/ml) is added in ELISA assay buffer and incubated for 2 hours at 25° C. on an orbital shaker. […] Plates are incubated for 1.5 hours at 25° C. on an orbital shaker. Plates are washed and 100 μl/well secondary antibody (F(ab′)₂ goat anti-human kappa light chain—HRP, 1:20,000 dilution, BioSource, Carlsbad, Calif., USA) is added, except for assay blank wells. Plates are washed twice (i.e. two cycles of 3 washes per cycle) with plate rotation between cycles. TMB substrate (Kirkegaard & Perry Laboratories, Gaithersburg, Md., USA) is added at 100 μl/well and incubated 3-5 minutes on an orbital shaker. Stop solution is added (100 μl/well) and the plate is read for absorbance at 450-570 um on a plate reader (Versamax, Molecular Devices, Sunnyvale, Calif., USA).

[10] = target: T1, rhIL-17A; assay: as above
Protocol: as §6, §7

[11] = target: T3, FLAG-huIL-17A; assay: KinExA, solution equilibrium
Protocol: as §3, §4, §5

[12] = target: T2, cynomolgus monkey IL-17A; assay: KinExA, solution equilibrium
Protocol: as §3, §4, §5

[13] = target: T2, cynomolgus monkey IL-17A; assay: ECL (Origen); area under the curve
Description: as §1, §2

Binder | IC50, synoviocyte IL-6 production, rhIL-17A (30 ng/ml) [6] [µg/mL] | Kd [7] [pM] | IC50, synoviocyte IL-8 production, rhIL-17A (30 ng/ml) [8] [µg/mL] | EC50 [10] [pM] | also measured
B1 | – | – | – | – | IC50, inhibition of IL-6 production in NHDF cells, rhIL-17A [1]: 500 pM; IC50, inhibition of IL-6 production in NHDF cells, cyno IL-17A [2]: 200 pM
B2 | – | – | – | – | IC50, Ba/F3 hIL-17Rc-mGCSFR proliferation assay, IL-17A at 100 pM [3]: 29 pM; EC50 [4]: 157 pM; Area Under Peak [5]: 346000
B3 | – | – | – | – | IC50, inhibition of IL-6 production in NHDF cells, rhIL-17A [1]: > 70000 pM; IC50, inhibition of IL-6 production in NHDF cells, cyno IL-17A [2]: > 70000 pM
B4 | 0.08 | 8.8 | 0.042 | 66 | EC50 [4]: 212 pM; EC50 [9]: 130 pM
B5 | – | 16.1 | – | – | –
B6 | 0.06 | 9.9 | 0.025 | 60 | –
B7 | 0.07 | 10 | 0.04 | 80 | IC50, Ba/F3 hIL-17Rc-mGCSFR proliferation assay, IL-17A at 100 pM [3]: 11 pM; EC50 [9]: 118 pM
B8 | – | – | – | 125 | –
B9 | 0.06 | 10.8 | 0.025 | 75 | –
B10 | 0.06 | – | 0.025 | 68 | –
B11 | – | – | – | 53 | –
B12 | – | – | – | 74 | –
B13 | 0.07 | – | 0.05 | 49 | –
B14 | 0.06 | 7 | 0.025 | 65 | –
B15 | – | – | – | 66 | –
B16 | – | – | – | 63 | –
B17 | – | – | – | – | Kd [11]: 11 pM; Kd [12]: 32.6 pM; Area Under Peak [13]: 124000; IC50, inhibition of IL-6 production in NHDF cells, rhIL-17A [1]: 500 pM; IC50, inhibition of IL-6 production in NHDF cells, cyno IL-17A [2]: 200 pM; Area Under Peak [5]: 312000
